Article PMC9482650, “Quantitative fragmentomics allow affinity mapping of interactomes” (Nature Communications, 2022)
Blank lines part the entries; values can stand above or below the binder they belong to.

Columns and labels:
Test in all cases: holdup assay
Design in all cases: key: below the threshold = too weak to quantify, mostly under pKd 3.1 to 4
PARD3B_1, Q8TEW8 = target: T1, PARD3B_1, Q8TEW8
T1 sequence (Q8TEW8 196-299, limits assumed, looked up): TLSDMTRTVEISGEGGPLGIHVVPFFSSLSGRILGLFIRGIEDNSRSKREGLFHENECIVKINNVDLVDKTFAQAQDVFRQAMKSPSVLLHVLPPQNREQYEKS

NHERF3_4, Q5T2W1 = target: T2, NHERF3_4, Q5T2W1
T2 sequence (Q5T2W1 373-468, limits assumed, looked up): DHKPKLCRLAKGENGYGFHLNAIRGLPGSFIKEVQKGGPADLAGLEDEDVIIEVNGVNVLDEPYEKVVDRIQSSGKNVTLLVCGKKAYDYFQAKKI

GRID2IP_2, A4D2P6 = target: GRID2IP_2, A4D2P6
DLG3_2, Q92796 = target: T3, DLG3_2, Q92796
T3 sequence (Q92796 221-321, limits assumed, looked up): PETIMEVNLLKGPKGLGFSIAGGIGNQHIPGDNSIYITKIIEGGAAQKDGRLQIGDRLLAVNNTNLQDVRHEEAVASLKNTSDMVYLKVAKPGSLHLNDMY

GOPC, Q9HD26 = target: GOPC, Q9HD26
DVL3, Q92997 = target: T4, DVL3, Q92997
T4 sequence (Q92997 244-331, limits assumed, looked up): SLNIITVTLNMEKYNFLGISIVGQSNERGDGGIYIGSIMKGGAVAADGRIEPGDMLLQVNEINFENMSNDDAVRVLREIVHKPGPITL

APBA2_1, Q99767 = target: T5, APBA2_1, Q99767
T5 sequence (Q99767 563-664, limits assumed, looked up): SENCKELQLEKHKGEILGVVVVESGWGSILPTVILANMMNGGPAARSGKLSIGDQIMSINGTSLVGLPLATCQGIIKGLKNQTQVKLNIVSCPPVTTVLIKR

DLG3_1, Q92796 = target: T6, DLG3_1, Q92796
T6 sequence (Q92796 125-227, limits assumed, looked up): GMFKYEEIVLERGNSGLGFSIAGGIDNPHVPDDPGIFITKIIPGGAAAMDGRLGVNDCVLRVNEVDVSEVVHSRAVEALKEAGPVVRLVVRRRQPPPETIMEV

Inadl_8, Q8NI35 = target: Inadl_8, Q8NI35
LNX1_2, Q8TBB1 = target: LNX1_2, Q8TBB1
GRIP2_4, Q9C0E4 = target: GRIP2_4, Q9C0E4
FRMPD2_1, Q68DX3 = target: FRMPD2_1, Q68DX3
LNX1_1, Q8TBB1 = target: LNX1_1, Q8TBB1
MPDZ_12, O75970 = target: T7, MPDZ_12, O75970
T7 sequence (O75970 1857-1958, limits assumed, looked up): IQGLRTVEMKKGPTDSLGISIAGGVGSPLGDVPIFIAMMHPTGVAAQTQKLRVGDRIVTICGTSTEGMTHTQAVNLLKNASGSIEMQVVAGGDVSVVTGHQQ

SNTG2, Q9NY99 = target: T8, SNTG2, Q9NY99
T8 sequence (Q9NY99 68-166, limits assumed, looked up): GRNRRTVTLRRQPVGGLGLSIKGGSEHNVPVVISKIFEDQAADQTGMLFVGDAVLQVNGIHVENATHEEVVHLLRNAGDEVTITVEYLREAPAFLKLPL

LIMK2, P53671 = target: LIMK2, P53671
MAST1, Q9Y2H9 = target: MAST1, Q9Y2H9
SCRIB_2, Q14160 = target: SCRIB_2, Q14160
PARD3_3, Q8TEW0 = target: PARD3_3, Q8TEW0
IL16_3, Q14005 = target: IL16_3, Q14005
SCRIB_1, Q14160 = target: SCRIB_1, Q14160
MAST2, Q6P0Q8 = target: MAST2, Q6P0Q8
SHANK1, Q9Y566 = target: T9, SHANK1, Q9Y566
T9 sequence (Q9Y566 658-767, limits assumed, looked up): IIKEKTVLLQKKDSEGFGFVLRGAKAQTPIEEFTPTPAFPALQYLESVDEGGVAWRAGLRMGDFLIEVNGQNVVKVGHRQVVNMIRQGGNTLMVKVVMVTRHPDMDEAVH

GORASP2, Q9H8Y8 = target: GORASP2, Q9H8Y8
TJP1_2, Q07157 = target: TJP1_2, Q07157
Inadl_6, Q8NI35 = target: Inadl_6, Q8NI35
RHPN1, Q8TCX5 = target: T10, RHPN1, Q8TCX5
T10 sequence (Q8TCX5 508-602, limits assumed, looked up): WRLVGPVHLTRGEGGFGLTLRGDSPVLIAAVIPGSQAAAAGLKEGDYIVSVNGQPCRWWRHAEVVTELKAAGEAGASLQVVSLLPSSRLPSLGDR

[1] = plain residues with an end cap or a label only (N-terminal biotin on a linker: ado-ado)
[2] = modified: phospho on S at position -3 from the C-terminal residue
[3] = modified: acetyl on K at position -1 from the C-terminal residue

Sequence of PARD3_3, Q8TEW0 (Q8TEW0 582-685): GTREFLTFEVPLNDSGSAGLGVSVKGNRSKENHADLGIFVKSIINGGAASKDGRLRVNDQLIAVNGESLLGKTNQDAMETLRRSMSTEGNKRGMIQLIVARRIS
Sequence of Inadl_8, Q8NI35 (Q8NI35 1425-1530): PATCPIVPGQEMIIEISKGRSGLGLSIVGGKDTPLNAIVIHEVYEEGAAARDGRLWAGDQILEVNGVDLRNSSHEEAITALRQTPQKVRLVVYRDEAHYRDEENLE
Sequence of IL16_3, Q14005 (Q14005 1107-1207): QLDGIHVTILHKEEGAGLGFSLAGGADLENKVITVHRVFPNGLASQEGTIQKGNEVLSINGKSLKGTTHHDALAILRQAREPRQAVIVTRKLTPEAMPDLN
Sequence of LIMK2, P53671 (P53671 143-248): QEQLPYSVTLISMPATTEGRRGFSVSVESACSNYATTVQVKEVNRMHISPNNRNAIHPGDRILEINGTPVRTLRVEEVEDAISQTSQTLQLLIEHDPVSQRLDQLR
Sequence of LNX1_1, Q8TBB1 (Q8TBB1 261-371): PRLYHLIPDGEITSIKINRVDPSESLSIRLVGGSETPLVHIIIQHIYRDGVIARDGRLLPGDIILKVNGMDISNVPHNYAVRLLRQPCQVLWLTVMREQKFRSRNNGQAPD
Sequence of GRID2IP_2, A4D2P6 (A4D2P6 272-370): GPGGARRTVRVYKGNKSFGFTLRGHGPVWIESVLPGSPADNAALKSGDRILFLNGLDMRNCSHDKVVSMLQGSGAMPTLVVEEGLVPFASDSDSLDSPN
Sequence of GRIP2_4, Q9C0E4 (Q9C0E4 446-548): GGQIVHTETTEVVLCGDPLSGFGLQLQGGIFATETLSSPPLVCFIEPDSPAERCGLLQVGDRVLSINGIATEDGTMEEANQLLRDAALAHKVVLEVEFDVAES
Sequence of SCRIB_1, Q14160 (Q14160 718-814): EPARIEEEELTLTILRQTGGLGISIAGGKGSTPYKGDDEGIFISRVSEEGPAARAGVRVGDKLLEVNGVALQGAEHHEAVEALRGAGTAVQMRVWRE
Sequence of LNX1_2, Q8TBB1 (Q8TBB1 371-470): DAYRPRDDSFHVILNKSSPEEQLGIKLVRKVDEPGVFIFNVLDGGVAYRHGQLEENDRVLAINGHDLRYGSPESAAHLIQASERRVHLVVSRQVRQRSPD
Sequence of FRMPD2_1, Q68DX3 (Q68DX3 770-861): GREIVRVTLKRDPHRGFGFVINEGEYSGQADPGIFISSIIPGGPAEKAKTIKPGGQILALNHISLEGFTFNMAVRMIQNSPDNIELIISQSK
Sequence of MAST1, Q9Y2H9 (Q9Y2H9 962-1065): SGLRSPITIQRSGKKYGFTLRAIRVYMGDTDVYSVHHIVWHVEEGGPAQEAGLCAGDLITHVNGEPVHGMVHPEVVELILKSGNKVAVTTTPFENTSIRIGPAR
Sequence of Inadl_6, Q8NI35 (Q8NI35 1058-1167): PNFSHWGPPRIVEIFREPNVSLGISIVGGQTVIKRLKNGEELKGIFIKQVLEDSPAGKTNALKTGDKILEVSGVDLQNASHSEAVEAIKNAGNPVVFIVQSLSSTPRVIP
Sequence of MAST2, Q6P0Q8 (Q6P0Q8 1099-1202): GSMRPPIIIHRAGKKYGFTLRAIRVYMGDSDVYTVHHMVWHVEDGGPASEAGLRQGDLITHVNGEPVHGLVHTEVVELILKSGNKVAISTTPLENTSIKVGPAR
Sequence of SCRIB_2, Q14160 (Q14160 857-960): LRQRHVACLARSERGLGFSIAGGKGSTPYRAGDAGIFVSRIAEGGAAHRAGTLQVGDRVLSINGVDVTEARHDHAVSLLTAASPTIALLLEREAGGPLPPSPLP
Sequence of TJP1_2, Q07157 (Q07157 181-274): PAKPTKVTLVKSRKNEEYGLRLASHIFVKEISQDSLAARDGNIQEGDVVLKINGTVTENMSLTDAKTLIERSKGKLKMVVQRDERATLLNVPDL

Binder: LETREPTNTL [GRIP1, Q9Y3R0]
pKd (PARD3B_1, Q8TEW8; [1]): 3.84
pKd (NHERF3_4, Q5T2W1; [1]): below the threshold
pKd (GRID2IP_2, A4D2P6; [1]): below the threshold
pKd (DLG3_2, Q92796; [1]): below the threshold
pKd (GOPC, Q9HD26; [1]): below the threshold
pKd (DVL3, Q92997; [1]): below the threshold
pKd (APBA2_1, Q99767; [1]): below the threshold
pKd (DLG3_1, Q92796; [1]): below the threshold
pKd (Inadl_8, Q8NI35; [1]): below the threshold
pKd (LNX1_2, Q8TBB1; [1]): below the threshold
pKd (GRIP2_4, Q9C0E4; [1]): below the threshold
pKd (FRMPD2_1, Q68DX3; [1]): below the threshold
pKd (LNX1_1, Q8TBB1; [1]): below the threshold
pKd (MPDZ_12, O75970; [1]): below the threshold
pKd (SNTG2, Q9NY99; [1]): below the threshold
pKd (LIMK2, P53671; [1]): below the threshold
pKd (MAST1, Q9Y2H9; [1]): below the threshold
pKd (SCRIB_2, Q14160; [1]): below the threshold
pKd (PARD3_3, Q8TEW0; [1]): below the threshold
pKd (IL16_3, Q14005; [1]): below the threshold
pKd (SCRIB_1, Q14160; [1]): below the threshold
pKd (MAST2, Q6P0Q8; [1]): 3.92
pKd (SHANK1, Q9Y566; [1]): below the threshold
pKd (GORASP2, Q9H8Y8; [1]): below the threshold
pKd (TJP1_2, Q07157; [1]): below the threshold
pKd (Inadl_6, Q8NI35; [1]): below the threshold
pKd (RHPN1, Q8TCX5; [1]): below the threshold

Binder: RALRASESGI [ADGRE5, P48960]
pKd (PARD3B_1, Q8TEW8; [1]): below the threshold
pKd (NHERF3_4, Q5T2W1; [1]): below the threshold
pKd (GRID2IP_2, A4D2P6; [1]): below the threshold
pKd (DLG3_2, Q92796; [1]): below the threshold
pKd (GOPC, Q9HD26; [1]): below the threshold
pKd (DVL3, Q92997; [1]): below the threshold
pKd (APBA2_1, Q99767; [1]): below the threshold
pKd (DLG3_1, Q92796; [1]): below the threshold
pKd (Inadl_8, Q8NI35; [1]): below the threshold
pKd (LNX1_2, Q8TBB1; [1]): below the threshold
pKd (GRIP2_4, Q9C0E4; [1]): below the threshold
pKd (FRMPD2_1, Q68DX3; [1]): below the threshold
pKd (LNX1_1, Q8TBB1; [1]): below the threshold
pKd (MPDZ_12, O75970; [1]): below the threshold
pKd (SNTG2, Q9NY99; [1]): below the threshold
pKd (LIMK2, P53671; [1]): below the threshold
pKd (MAST1, Q9Y2H9; [1]): below the threshold
pKd (SCRIB_2, Q14160; [1]): below the threshold
pKd (PARD3_3, Q8TEW0; [1]): below the threshold
pKd (IL16_3, Q14005; [1]): below the threshold
pKd (SCRIB_1, Q14160; [1]): below the threshold
pKd (MAST2, Q6P0Q8; [1]): 3.82
pKd (SHANK1, Q9Y566; [1]): below the threshold
pKd (GORASP2, Q9H8Y8; [1]): below the threshold
pKd (TJP1_2, Q07157; [1]): below the threshold
pKd (Inadl_6, Q8NI35; [1]): below the threshold
pKd (RHPN1, Q8TCX5; [1]): below the threshold

Binder: TMQMSLKDLL [GLA, P06280]
pKd (PARD3B_1, Q8TEW8; [1]): 3.93
pKd (NHERF3_4, Q5T2W1; [1]): below the threshold
pKd (GRID2IP_2, A4D2P6; [1]): 3.69
pKd (DLG3_2, Q92796; [1]): below the threshold
pKd (GOPC, Q9HD26; [1]): 3.49
pKd (DVL3, Q92997; [1]): 3.6
pKd (APBA2_1, Q99767; [1]): below the threshold
pKd (DLG3_1, Q92796; [1]): 3.56
pKd (Inadl_8, Q8NI35; [1]): below the threshold
pKd (LNX1_2, Q8TBB1; [1]): below the threshold
pKd (GRIP2_4, Q9C0E4; [1]): below the threshold
pKd (FRMPD2_1, Q68DX3; [1]): below the threshold
pKd (LNX1_1, Q8TBB1; [1]): 3.64
pKd (MPDZ_12, O75970; [1]): below the threshold
pKd (SNTG2, Q9NY99; [1]): below the threshold
pKd (LIMK2, P53671; [1]): below the threshold
pKd (MAST1, Q9Y2H9; [1]): 4.03
pKd (SCRIB_2, Q14160; [1]): below the threshold
pKd (PARD3_3, Q8TEW0; [1]): 3.54
pKd (IL16_3, Q14005; [1]): 3.5
pKd (SCRIB_1, Q14160; [1]): below the threshold
pKd (MAST2, Q6P0Q8; [1]): 4.19
pKd (SHANK1, Q9Y566; [1]): 3.59
pKd (GORASP2, Q9H8Y8; [1]): 3.51
pKd (TJP1_2, Q07157; [1]): below the threshold
pKd (Inadl_6, Q8NI35; [1]): below the threshold
pKd (RHPN1, Q8TCX5; [1]): 3.79

Now from value to binder:

pKd (PARD3B_1, Q8TEW8; [2]): 4.62
pKd (NHERF3_4, Q5T2W1; [2]): below the threshold
pKd (GRID2IP_2, A4D2P6; [2]): below the threshold
pKd (DLG3_2, Q92796; [2]): below the threshold
pKd (GOPC, Q9HD26; [2]): below the threshold
pKd (DVL3, Q92997; [2]): below the threshold
pKd (APBA2_1, Q99767; [2]): below the threshold
pKd (DLG3_1, Q92796; [2]): below the threshold
pKd (Inadl_8, Q8NI35; [2]): below the threshold
pKd (LNX1_2, Q8TBB1; [2]): below the threshold
pKd (GRIP2_4, Q9C0E4; [2]): below the threshold
pKd (FRMPD2_1, Q68DX3; [2]): below the threshold
pKd (LNX1_1, Q8TBB1; [2]): below the threshold
pKd (MPDZ_12, O75970; [2]): below the threshold
pKd (SNTG2, Q9NY99; [2]): 4.76
pKd (LIMK2, P53671; [2]): below the threshold
pKd (MAST1, Q9Y2H9; [2]): below the threshold
pKd (SCRIB_2, Q14160; [2]): below the threshold
pKd (PARD3_3, Q8TEW0; [2]): 3.76
pKd (IL16_3, Q14005; [2]): below the threshold
pKd (SCRIB_1, Q14160; [2]): 4.07
pKd (MAST2, Q6P0Q8; [2]): 4.21
pKd (SHANK1, Q9Y566; [2]): below the threshold
pKd (GORASP2, Q9H8Y8; [2]): 3.56
pKd (TJP1_2, Q07157; [2]): below the threshold
pKd (Inadl_6, Q8NI35; [2]): below the threshold
pKd (RHPN1, Q8TCX5; [2]): 4.34
Binder: RRVRKLPSTTL [RPS6KA1_-3P, Q15418]

pKd (PARD3B_1, Q8TEW8; [3]): below the threshold
pKd (NHERF3_4, Q5T2W1; [3]): below the threshold
pKd (GRID2IP_2, A4D2P6; [3]): 4.39
pKd (DLG3_2, Q92796; [3]): 4.56
pKd (GOPC, Q9HD26; [3]): 4.19
pKd (DVL3, Q92997; [3]): below the threshold
pKd (APBA2_1, Q99767; [3]): below the threshold
pKd (DLG3_1, Q92796; [3]): below the threshold
pKd (Inadl_8, Q8NI35; [3]): 4.82
pKd (LNX1_2, Q8TBB1; [3]): 4.18
pKd (GRIP2_4, Q9C0E4; [3]): below the threshold
pKd (FRMPD2_1, Q68DX3; [3]): below the threshold
pKd (LNX1_1, Q8TBB1; [3]): 3.61
pKd (MPDZ_12, O75970; [3]): below the threshold
pKd (SNTG2, Q9NY99; [3]): 3.78
pKd (LIMK2, P53671; [3]): below the threshold
pKd (MAST1, Q9Y2H9; [3]): 4.66
pKd (SCRIB_2, Q14160; [3]): below the threshold
pKd (PARD3_3, Q8TEW0; [3]): 3.97
pKd (IL16_3, Q14005; [3]): below the threshold
pKd (SCRIB_1, Q14160; [3]): 5.23
pKd (MAST2, Q6P0Q8; [3]): 5.14
pKd (SHANK1, Q9Y566; [3]): 4.18
pKd (GORASP2, Q9H8Y8; [3]): 4.06
pKd (TJP1_2, Q07157; [3]): below the threshold
pKd (Inadl_6, Q8NI35; [3]): 4.37
pKd (RHPN1, Q8TCX5; [3]): 4.65
Binder: DEDQHTQITKV [PTEN_Ac, P60484]
